Results reported in paper PMC3176765, “Mechanism of the Interaction between the Intrinsically Disordered C-Terminus of the Pro-Apoptotic ARTS Protein and the Bir3 Domain of XIAP” (PLoS ONE, 2011).
Positions of bridges follow the written chain, without caps; N, C: chain ends. Residues, ends and D or L forms follow the SMILES beside them. Chains are numbered I, II in the order given. No end group written: not given here. *: point of attachment. 5FAM = O=C1OC2(c3ccc(O)cc3Oc3cc(O)ccc32)c2ccc(C(=O)*)cc21

Legend:
[1] = target: T1, Bir3 subunit of the XIAP (residues 252–350) (Homo sapiens, UniProt P98170); experiment: Fluorescence anisotropy binding of fluorescein-labeled ARTS peptides to Bir3 (1:1 binding model); conditions: Bir3 titrated into fluorescein-labeled peptide, 20 mM Hepes pH 7.4, 45 mM NaCl, 10°C, no reducing agent, fit to 1:1 binding model, nb = no binding detected
T1 construct: The pET-21b(+) vector containing XIAP (252–350) Bir3 domain with a C-terminal His Tag; His tag (C); made in house; host or cells: E. coli BL21 Star (DE3)
T1 sequence (P98170 252-350): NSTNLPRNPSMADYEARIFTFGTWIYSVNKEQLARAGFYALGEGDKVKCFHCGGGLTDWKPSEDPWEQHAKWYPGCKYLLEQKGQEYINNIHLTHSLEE
Description: Fluorescence anisotropy was used to characterize the interaction between ARTS CTD and the Bir3 subunit of XIAP. ARTS CTD (residues 248–274) was synthesized using standard Fmoc chemistry and labeled with fluorescein at its N-terminus. The Bir3 subunit of the XIAP (residues 252–350) was expressed with a His-tag at the C-terminus and purified (see materials and methods and Figure S1). The binding experiments were done in 20 mM Hepes buffer, pH 7.4, 45 mM NaCl, at 10°C. Bir3 was titrated into fl-ARTS CTD and the data were fit to 1∶1 binding model resulting in K d = 8.0±0.7 µM (Figure 4A).
The pET-21b(+) vector containing XIAP (252–350) Bir3 domain with a C-terminal His Tag was transformed into E. coli strain BL21 Star^+ (DE3) (Novagen). Cells were grown at 37°C in LB medium to an optical density (600 nm) of ∼0.6 and induced with 0.4 mM isopropyl-β-D-1-thiogalactoside (IPTG). Cells were harvested after 8 h of incubation at 37°C and were lysed by Microfluidizer (Microfluidics). The protein was purified on HiTrap nickel-Sepharose FF column (100×10 mm, GE Healthcare), using an FPLC system (ÁKTA explorer, Amersham Biosciences). The eluted protein was further purified by filtration on a Sephacryl S100 column (950×26 mm; Amersham Biosciences). The protein was stored in 20 mM Hepes pH 7.4, 50 mM NaCl, 10 mM βME, 0.02% sodium azide and was dialyzed before experimental use.
Measurements were performed at 10°C by using a PerkinElmer LS-50b luminescence spectrofluorimeter equipped with a Hamilton microlabM dispenser as described in [44]. The fluorescently labeled peptide concentrations were determined by using a UV spectrophotometer (Shimadzu, Kyoto, Japan). The fluorescein-labeled ARTS derived peptides were dissolved in 20 mM Hepes buffer, pH 7.4 and 45 mM NaCl. 1 ml of the labeled peptide solution was placed in a cuvette, and the non-labeled Bir3 (200 µl, 150 µM) was placed in the dispenser. Additions of 5 µl were titrated at 90 sec intervals, the solution was stirred for 15 sec, and the fluorescence and anisotropy were measured after each addition by using an excitation wavelength of 480 nm and an emission wavelength of 530 nm. Dissociation constants (K d) were calculated by fitting the fluorescence titration curves (corrected for dilution) or fluorescence anisotropy curves to 1∶1 binding model using KALEIDAGRAPH (Synergy Software, Reading, PA). The following equation was used for the single-site model of the fluorescence results: [drawing 1] Where, F0 is the initial fluorescence, ΔF is the amplitude of the fluorescence change from unbound and bound states, K d is the dissociation constant and [Bir3] is the added concentration of Bir3 domain. A similar equation was used to fit the anisotropy results by replacing the fluorescence (F) with anisotropy (R) changes.

[2] = target: T1, Bir3 subunit of the XIAP (residues 252–350); experiment: Fluorescence spectroscopy binding of dimeric fl-ARTS 266–274 to Bir3 (Hill equation fit); conditions: fluorescence titration with Bir3; 20 mM Hepes pH 7.4, 45 mM NaCl, 10°C; Hill model, apparent averaged Kd; read-out: K d of dimeric peptide, fit to the Hill equation
Description: The importance of Cys273 residue for Bir3 binding raised the question of whether disulfide bond formation is involved in the interaction with Bir3. Addition of a reducing agent weakened the interaction between the ARTS derived peptides and Bir3 (Figure 4A). This raised the possibility that a disulfide bond is formed between two ARTS peptide molecules to form an active dimer. To test this, a covalent dimer of ARTS 266–274 was prepared by forming a disulfide bond between the Cys273 residues of two peptide monomers. MS gave a single peak corresponding the mass of the dimer (data not shown). […] Changes in the chemical shift of the sequentially following His274 and preceding Gln272 were also observed. Binding of Bir3 to the dimeric fl-ARTS 266–274 was studied using fluorescence spectroscopy (Fig. 6C). […]
Measurements were performed at 10°C by using a PerkinElmer LS-50b luminescence spectrofluorimeter equipped with a Hamilton microlabM dispenser as described in [44]. The fluorescently labeled peptide concentrations were determined by using a UV spectrophotometer (Shimadzu, Kyoto, Japan). […] Additions of 5 µl were titrated at 90 sec intervals, the solution was stirred for 15 sec, and the fluorescence and anisotropy were measured after each addition by using an excitation wavelength of 480 nm and an emission wavelength of 530 nm. […]

[3] = target: Dimer fl-ARTS 266-274 (human); experiment: other fluorescence titration; Bir3 titrated into dimeric fl-ARTS 266-274; fluorescence fit to the Hill equation; apparent averaged Kd; 20 mM Hepes pH 7.4, 45 mM NaCl, 10°C
[4] = target: T2, Bir3 domain of XIAP (residues 252-350) with a C-terminal His tag (UniProt P98170 252-350); experiment: fluorescence polarisation; non-labeled Bir3 (200 µl, 150 µM) titrated in 5 µl additions into 1 ml of fluorescein-labeled peptide; 20 mM Hepes pH 7.4, 45 mM NaCl, 10°C; fit to 1:1 binding model; conditions: both partners purified
T2 construct: Stored with 10 mM beta-mercaptoethanol and dialysed before experimental use; also called Bir3 subunit of XIAP; XIAP (252-350); source: E. coli BL21 Star (DE3), purified (nickel-Sepharose, Sephacryl S100 gel filtration)
T2 sequence (P98170 252-350): as above

[5] = target: T2, Bir3 domain of XIAP (residues 252-350) …; experiment: as above; conditions: both partners purified; remark: listed apart in the source
[6] = target: T2, Bir3 domain of XIAP (residues 252-350) …; experiment: NMR titration; TOCSY spectra of free and Bir3-bound ARTS CTD compared; peptide 0.5-1.5 mM, 20 mM deuterated Hepes, 45 mM potassium chloride, pH 6.8, 12°C; conditions: both partners purified
[7] = target: the molecule itself; experiment: SEC; analytical gel filtration of ARTS CTD 248-274 (1-2 mM) without DTT; 20 mM Hepes pH 7.4, 50 mM NaCl, 4°C; peaks identified by mass spectrometry; monomer to dimer

## PPGAVKGTG [fl-ARTS 257–265, fluorescein-labeled peptide of ARTS residues 257–265]
[1]
  K d (µM), binding affinity to Bir3: nb
[1]; listed as ARTS 257–265
  K d (µM), binding affinity to Bir3: did not

## QEAQGQGCH [fl-ARTS 266–274 H268A, alanine-scan analogue of fl-ARTS 266–274]
[1]
  K d (µM), binding affinity to Bir3: nb
[1]; listed as ARTS 266–274 H268A
  K d (µM), binding affinity to Bir3: did not bind

## QEHQGQGAH [fl-ARTS 266–274 C273A, alanine-scan analogue of fl-ARTS 266–274]
[1]
  K d (µM), binding affinity to Bir3: nb
[1]; listed as Cys273A
  K d (µM), binding affinity to Bir3: did not bind

## YGPSLRLLA [fl-ARTS 248–256, fluorescein-labeled peptide of ARTS residues 248–256]
[1]
  K d (µM), binding affinity to Bir3: nb
[1]; listed as ARTS 248–256
  K d (µM), binding affinity to Bir3: did not

## NC(=O)CC[C@H](NC(=O)CNC(=O)[C@H](CCC(N)=O)NC(=O)[C@H](Cc1c[nH]cn1)NC(=O)[C@H](CCC(=O)O)NC(=O)[C@H](CCC(N)=O)NC(=O)c1ccc2c(c1)C(=O)OC21c2ccc(O)cc2Oc2cc(O)ccc21)C(=O)NCC(=O)N[C@@H](CSSC[C@H](NC(=O)CNC(=O)[C@H](CCC(N)=O)NC(=O)CNC(=O)[C@H](CCC(N)=O)NC(=O)[C@H](Cc1c[nH]cn1)NC(=O)[C@H](CCC(=O)O)NC(=O)[C@H](CCC(N)=O)NC(=O)c1ccc2c(c1)C(=O)OC21c2ccc(O)cc2Oc2cc(O)ccc21)C(=O)N[C@@H](Cc1c[nH]cn1)C(=O)O)C(=O)N[C@@H](Cc1c[nH]cn1)C(=O)O [Dimer fl-ARTS 266–274] (I: 5FAM-QEHQGQGCH-OH / II: 5FAM-QEHQGQGCH-OH; disulfide I:8-II:8)
[2]
  Kd: 2400 ± 100 nM

## Bir3 domain of XIAP (residues 252-350) with a C-terminal His tag (from UniProt P98170 252-350) (domain or fragment)
[3]
  Kd: 2400 nM

B1: fl-ARTS 266-274 (peptide)
peptide: {5'/6'‑carboxyfluorescein}-QEHQGQGCH
notes: numbers count on: ARTS/Sept4_i2 (GenBank AAG45673.1); also called ARTS 266-274 monomer; source: synthetic peptide
[4]
  Kd: 2900 ± 300 nM
[5]
  Kd: 2500 ± 300 nM

B2: fl-ARTS 266-274 E267A (peptide)
peptide: {5'/6'‑carboxyfluorescein}-QAHQGQGCH
notes: numbers count on: ARTS/Sept4_i2 (GenBank AAG45673.1); source: synthetic peptide
[5]
  Kd: 3600 ± 800 nM

B3: fl-ARTS 248-274 (peptide)
peptide: {5(6)‑carboxyfluorescein}-YGPSLRLLAPPGAVKGTGQEHQGQGCH
notes: numbers count on: ARTS/Sept4_i2 (GenBank AAG45673.1); also called fl-ARTS CTD; fluorescein-labeled ARTS CTD 248-274; source: synthetic peptide
[5]
  Kd: 8000 ± 700 nM

B4: fl-ARTS 266-274 Q266A (peptide)
peptide: {5'/6'‑carboxyfluorescein}-AEHQGQGCH
notes: as for B2
[5]
  Kd: 900 ± 100 nM

B5: fl-ARTS 266-274 H274A (peptide)
peptide: {5'/6'‑carboxyfluorescein}-QEHQGQGCA
notes: as for B2
[5]
  Kd: 800 ± 300 nM

B6: fl-ARTS 266-274 Q269A (peptide)
peptide: {5'/6'‑carboxyfluorescein}-QEHAGQGCH
notes: as for B2
[5]
  Kd: 1000 ± 300 nM

B7: fl-ARTS 266-274 Q271A (peptide)
peptide: {5'/6'‑carboxyfluorescein}-QEHQGAGCH
notes: as for B2
[5]
  Kd: 1300 ± 200 nM

B8: ARTS CTD 248-274 (not labelled) (peptide)
peptide: YGPSLRLLAPPGAVKGTGQEHQGQGCH
notes: numbers count on: ARTS/Sept4_i2 (GenBank AAG45673.1); also called ARTS C-terminal domain; source: synthetic peptide
[6]
  binding result: binds
[7]
  stoichiometry N: 2
